From patent US20050186575A1 come the findings set out here.

For test [1], the target named is HR1 peptide of the SARS-CoV spike protein (SARS-CoV). In words: pooled complexes heated 5 min in 1x Tricine sample buffer, Tricine SDS-PAGE.
For test [2], the target named is MHV-A59 spike protein (mouse hepatitis virus strain A59) (UniProt P11224). Kind of test: cell-based or functional assay.
Test [3] deals with T1, HR1 peptide of the MHV-A59 spike protein (amino acid residues 953-1048) (mouse hepatitis virus strain A59), P11224.
Test [4] has as its target T1, HR1 peptide of the MHV-A59 spike …. Kind of test: pooled complexes heated 5 min in 1x Tricine sample buffer, Tricine SDS-PAGE.

T1 sequence (P11224 953-1048, tags left off): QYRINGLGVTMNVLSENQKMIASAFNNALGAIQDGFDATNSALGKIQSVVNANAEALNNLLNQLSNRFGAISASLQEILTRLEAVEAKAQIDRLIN

In turn, “HR2 peptide of the SARS-CoV spike protein” gave a temperature of dissociation of the complex in test [1] of 70 °C.
Take “HR2 peptide of the MHV-A59 spike protein (amino acid residues 1216-1254)”: in test [2], the EC50 of inhibition of MHV infection of LR7 cells came out at 900 nM and the spike-mediated cell-cell fusion (luciferase activity) (fold reduction at 10 µM) was 1000.
In the case of GPIEGRDLSLDFEKLNVTLLDLTYEMNRIQDAIKKLNESYINLKE (modifications not checked) [HR2 peptide of the MHV-A59 spike protein (amino acid residues 1216-1254)], in test [3], the temperature of full dissociation of the complex came out at 90 °C, the temperature of partial dissociation of the complex was found to be 80 °C and the temperature up to which the complex remained intact was determined as 70 °C. Moreover, the temperature of dissociation of the complex in test [4] turned out to be 90 °C.
